From ChEMBL document CHEMBL3525898, “Pharmacogenomics of gemcitabine metabolism: functional analysis of genetic variants in cytidine deaminase and deoxycytidine kinase” (Drug Metab Dispos, 2013)

Columns and labels:
Assay type in all cases: ADME
[1] = tested on: Nc1ccn([C@@H]2O[C@H](CO)[C@@H](O)C2(F)F)c(=O)n1; assay: Activity of human recombinant N-terminal His-SUMO fused CDA Ala70Thr mutant expressed in Escherichia coli BL21(DE3) cells assessed as 2',2'-difluorodeoxyuridine formation by liquid chromatography-tandem mass spectrometry
[2] = tested on: Nc1ccn([C@@H]2O[C@H](CO)[C@@H](O)C2(F)F)c(=O)n1; assay: Activity of human recombinant N-terminal His-SUMO fused CDA Lys27Gln mutant expressed in Escherichia coli BL21(DE3) cells assessed as 2',2'-difluorodeoxyuridine formation by liquid chromatography-tandem mass spectrometry
[3] = tested on: Nc1ccn([C@@H]2O[C@H](CO)[C@@H](O)C2(F)F)c(=O)n1; assay: Activity of human recombinant N-terminal His-tagged wild type DCK expressed in Escherichia coli BL21(DE3) cells assessed as enzyme-mediated […] incubated for 1 min by liquid chromatography-tandem mass spectrometry

Deoxycytidine kinase (Homo sapiens), sequence (chain, as listed by the source): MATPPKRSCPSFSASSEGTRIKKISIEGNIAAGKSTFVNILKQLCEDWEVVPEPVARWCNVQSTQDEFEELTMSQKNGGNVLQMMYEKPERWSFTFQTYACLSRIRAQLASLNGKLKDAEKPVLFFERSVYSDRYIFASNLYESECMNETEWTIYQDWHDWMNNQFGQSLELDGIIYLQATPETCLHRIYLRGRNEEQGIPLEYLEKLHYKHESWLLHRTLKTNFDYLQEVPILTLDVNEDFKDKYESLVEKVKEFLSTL

Cytidine deaminase (Homo sapiens; A70T) was tested, and the Km [1] was 610 µM and the Vmax [1] was 0.151 µmol/min/mg.
For Cytidine deaminase (Homo sapiens; K27Q), the Km [2] was 562 µM and the Vmax [2] was 0.195 µmol/min/mg.
In the case of Deoxycytidine kinase (Homo sapiens), the Km [3] is reported as 2.15 µM and the Vmax [3] is reported as 1.06 µmol/min/mg.
